Experimental data reported in US8916370B2, “Isoprene synthase variants for improved microbial production of isoprene” (Danisco US Inc., priority 2008, dated 2014).

Tests used:
[1] = tested on: E. coli strain MCM531 (BL21 PL.2-mKKDyI); assay: Growth inhibition of MCM531 by mevalonic acid; format: cell-based, Escherichia coli; conditions: TM3 medium with 1% glucose and yeast extract; 0, 1, 5, 10, 15 or 20 mM MVA; OD600, quadruplicate
Description: An overnight culture of MCM531 (see strain description) was back-diluted to an OD600 of 0.05 (this corresponds to an OD600 of approx 0.005 in a 96-well plate reader) (SpectraMax M2, Molecular Devices). The diluted culture was then aliquotted into separate wells in a 96-well deep-well plate into standard TM3 medium (13.6 g K2PO4, 13.6 g KH2PO4, 2.0 g MgSO4*7H2O) supplemented with 1% glucose and 0.8 g/L Biospringer yeast extract (1% Yeast extract final)) with 0, 1, 5, 10, 15 or 20 mM MVA added. […] Each MVA concentration was assayed in quadruplicate, error bars were negligible.

[2] = molecular target: P. alba isoprene synthase (IspS), truncated MEA variant, C-terminally TEV and His-tagged (MD09-167), MEA(+)TEV, SEQ ID NO:132 (Populus alba, UniProt Q50L36); conditions: DMAPP 0.625 to 40 mM, 50 mM MgCl2, pH 8, 30° C., 15 min; ± S.D., triplicate (2.5 mM DMAPP in duplicate)
P. alba isoprene synthase (IspS), truncated MEA variant, C-terminally TEV and His-tagged (MD09-167), MEA(+)TEV, SEQ ID NO:132, sequence (Q50L36 with tags, fused parts or gaps): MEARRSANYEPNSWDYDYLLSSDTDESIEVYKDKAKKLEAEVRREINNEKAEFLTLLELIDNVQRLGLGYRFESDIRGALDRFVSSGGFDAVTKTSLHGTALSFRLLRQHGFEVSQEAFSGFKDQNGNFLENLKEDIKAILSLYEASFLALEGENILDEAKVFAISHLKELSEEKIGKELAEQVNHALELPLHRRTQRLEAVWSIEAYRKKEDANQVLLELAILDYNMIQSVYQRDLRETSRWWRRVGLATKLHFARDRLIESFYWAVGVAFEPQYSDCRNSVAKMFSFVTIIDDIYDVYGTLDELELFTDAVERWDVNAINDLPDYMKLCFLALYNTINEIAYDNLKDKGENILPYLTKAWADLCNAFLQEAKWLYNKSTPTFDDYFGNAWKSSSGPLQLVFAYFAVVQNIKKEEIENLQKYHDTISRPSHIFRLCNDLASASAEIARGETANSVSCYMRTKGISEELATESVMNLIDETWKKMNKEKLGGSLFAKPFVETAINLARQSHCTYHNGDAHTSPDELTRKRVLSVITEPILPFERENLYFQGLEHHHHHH
Description: (§1) The relative specific activity was determined and the kinetics of “N-terminally truncated” P. alba isoprene synthases were examined compared to “Full length” P. alba isoprene synthases. Four strains expressing four different constructs were used in this analysis: BL21(λDE3) pLysS with P. alba pET24a; MD09-173; MD09-165; and MD09-167 (Strains described above in detail). These strains express “full length” P. alba IspS, “truncated” P. alba IspS (the MEA truncation), “full length” C-terminally TEV and His-tagged P. alba IspS, and “truncated” C-terminally TEV and His-tagged P. alba IspS, respectively. In the experiments described below, “truncated” refers specifically to the MEA variant of P. alba IspS.
(§2) All strains were inoculated into LB containing 30 mg/L chloramphenicol(Cm) and 50 mg/L kanamycin and grown overnight in 2 mL culture tubes at 37° C. The overnight cultures were diluted 1:100 in 25 mL of LB broth containing 30 mg/L chloramphenicol(Cm) and 50 mg/L kanamycin the following morning and grown at 37° C. until OD˜0.5. Each strain was grown in triplicate. The cultures were then induced with 400 uM IPTG and incubated at 30° C. for 4 hours.

[3] = molecular target: P. alba isoprene synthase (IspS), full length, C-terminally TEV and His-tagged (MD09-165), FL(+)TEV, SEQ ID NO:134 (Populus alba, UniProt Q50L36); conditions: DMAPP 0.625 to 40 mM, 50 mM MgCl2, pH 8, 30° C., 15 min; ± S.D., triplicate
P. alba isoprene synthase (IspS), full length, C-terminally TEV and His-tagged (MD09-165), FL(+)TEV, SEQ ID NO:134, sequence (Q50L36 with tags, fused parts or gaps): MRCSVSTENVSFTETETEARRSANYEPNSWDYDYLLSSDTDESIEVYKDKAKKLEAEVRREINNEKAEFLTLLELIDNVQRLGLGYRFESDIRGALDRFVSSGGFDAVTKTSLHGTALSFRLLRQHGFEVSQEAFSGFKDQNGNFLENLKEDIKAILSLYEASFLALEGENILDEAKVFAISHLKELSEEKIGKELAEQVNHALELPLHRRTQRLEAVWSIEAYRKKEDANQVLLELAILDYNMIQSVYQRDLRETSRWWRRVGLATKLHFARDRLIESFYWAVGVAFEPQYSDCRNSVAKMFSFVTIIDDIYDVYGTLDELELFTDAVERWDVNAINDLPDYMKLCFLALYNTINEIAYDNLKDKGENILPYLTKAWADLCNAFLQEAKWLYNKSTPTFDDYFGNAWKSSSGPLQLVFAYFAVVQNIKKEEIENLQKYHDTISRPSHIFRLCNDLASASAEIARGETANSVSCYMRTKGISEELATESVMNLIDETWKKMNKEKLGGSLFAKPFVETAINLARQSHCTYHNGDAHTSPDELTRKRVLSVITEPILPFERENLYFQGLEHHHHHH
Description: as §1, §2

[4] = substrate: CC(C)=CCOP(=O)(O)OP(=O)(O)O; assay: purified protein, by the assay type; conditions: other: DMAPP 0.625 to 40 mM, 50 mM MgCl2, pH 8, 30° C., 15 min, ± S.D., triplicate

Row | KM [2] [µM] | KM [3] [µM] | Molecule | concentration at which growth was severely inhibited [1] [mM] | Km [4] [µM] | kcat [4] [s⁻¹]
1 |  |  | C[C@@](O)(CCO)CC(=O)O [MVA, Mevalonic Acid] | ≥ 5 |  | 
2 | 2000 ± 1000 | 2400 ± 500 | CC(C)=CCOP(=O)(O)OP(=O)(O)O [DMAPP, 3,3-dimethylallyl pyrophosphate] |  |  | 
3 |  |  | P. alba isoprene synthase (IspS), full length, untagged, SEQ ID NO:120 (Populus alba) (protein) MRCSVSTENVSFTETETEARRSANYEPNSWDYDYLLSSDTDESIEVYKDKAKKLEAEVRREINNEKAEFLTLLELIDNVQRLGLGYRFESDIRGALDRFVSSGGFDAVTKTSLHGTALSFRLLRQHGFEVSQEAFSGFKDQNGNFLENLKEDIKAILSLYEASFLALEGENILDEAKVFAISHLKELSEEKIGKELAEQVNHALELPLHRRTQRLEAVWSIEAYRKKEDANQVLLELAILDYNMIQSVYQRDLRETSRWWRRVGLATKLHFARDRLIESFYWAVGVAFEPQYSDCRNSVAKMFSFVTIIDDIYDVYGTLDELELFTDAVERWDVNAINDLPDYMKLCFLALYNTINEIAYDNLKDKGENILPYLTKAWADLCNAFLQEAKWLYNKSTPTFDDYFGNAWKSSSGPLQLVFAYFAVVQNIKKEEIENLQKYHDTISRPSHIFRLCNDLASASAEIARGETANSVSCYMRTKGISEELATESVMNLIDETWKKMNKEKLGGSLFAKPFVETAINLARQSHCTYHNGDAHTSPDELTRKRVLSVITEPILPFER |  | 2400 ± 300 | 0.72
4 |  |  | P. alba isoprene synthase (IspS), N-terminally truncated MEA variant, untagged (MD09-173, pDu39), SEQ ID NO:122 (Populus alba) (protein) MEARRSANYEPNSWDYDYLLSSDTDESIEVYKDKAKKLEAEVRREINNEKAEFLTLLELIDNVQRLGLGYRFESDIRGALDRFVSSGGFDAVTKTSLHGTALSFRLLRQHGFEVSQEAFSGFKDQNGNFLENLKEDIKAILSLYEASFLALEGENILDEAKVFAISHLKELSEEKIGKELAEQVNHALELPLHRRTQRLEAVWSIEAYRKKEDANQVLLELAILDYNMIQSVYQRDLRETSRWWRRVGLATKLHFARDRLIESFYWAVGVAFEPQYSDCRNSVAKMFSFVTIIDDIYDVYGTLDELELFTDAVERWDVNAINDLPDYMKLCFLALYNTINEIAYDNLKDKGENILPYLTKAWADLCNAFLQEAKWLYNKSTPTFDDYFGNAWKSSSGPLQLVFAYFAVVQNIKKEEIENLQKYHDTISRPSHIFRLCNDLASASAEIARGETANSVSCYMRTKGISEELATESVMNLIDETWKKMNKEKLGGSLFAKPFVETAINLARQSHCTYHNGDAHTSPDELTRKRVLSVITEPILPFER |  | 1800 ± 200 | 1.5
